Experimental data from patent US20080138339A1 (DONGGNAN HAOFA BIOTECHNOLOGY DEVELOPMENTAL, published 2008).

Target: T1, OC183B2 (antigens associated with ovarian carcinoma) (human)
T1 construct: It is treated here as a protein antigen; also called HRP-OC183B2
Assay: direct ELISA; plate coated with bispecific antibody, HRP-OC183B2 added, read at 492 nm
Procedure: The antigen-binding activity of anti-ovarian carcinoma scFv in bispecific antibody was assayed by direct ELISA. ELISA plate was coated with bispecific antibody at 4° C. overnight. Wells coated with anti-ovarian monoclonal antibody were set as positive control. Plate was washed 3 times with PBST (PBS-0.05% Tween 20) for 5 min. HRP-OC183B2 diluted in 3% goat serum was added and incubate at 37° C. for 1 h. After washing plate 3 times with PBST, the substrate of HRP was added and incubated for 20 min at room temperature in the dark. 2M H2SO4 was added to stop the reaction. All the values of OD492 of bispecific antibody were 2.5 times higher than those of negative control and changed with gradient among the different dilution of bispecific antibody.

B1: anti-human ovarian carcinoma x anti-human CD3 bispecific antibody (bispecific antibody, not shown: a dimerising Fc or GST)
chain: EVQLQESGPEVKKPGETVRISCKASGYTFTTAGMQWVQKMPGKGLKWLGWINTNSEVPKYAEDFRGRFAFSLETSASTAYLQISNLKNEDTATFFCARSFTWGTMDYWGQGTTVTVSSGGGGSGGGGSGGGGSDVVMTQTPLSLPVSLGDQASISCRSSQTLVHSIGNTYLHWYLQKPGQSPKLLIYKVSNRFSGVPDRFSGSGSGTDFTLKISRVEAEDLGVYFCSQSTHVPYTFGGGTKLELKEIVLTQSPATLSLSPGERATLSCSASSSVSYMNWYQQKPGQAPRRWIYDTSKLASGIPARFSGSGSGTDFTLTISSLEPEDFATYYCQQWSSNPFTFGGGTKVEIKRGGGGSGGGGSGGGGSQVQLVQSGAEVRKPGASVRVSCKASGYTFTRYTMHWVRQAPGHGLEWIGYINPSRGYTNYNQKFKDRVTMTTDKSFSTAIMDLRSLRSDDSAVYYCARYYDDHYCLDYWGQGTTVTVSSHHHHHH
notes: Single polypeptide expressed from pAMAB in E. coli G1724, about 52 kDa; Order: anti-ovarian scFv, interlinker, anti-CD3 reshaped scFv, 6 His; also called BsAb; ScBsAb
For B1, the “OD492 relative to negative control” value was 2.5 times.
